Data from the Human Domainome abundance scans (Beltran et al. 2025).

B1: POU domain, class 4, transcription factor 3, residues 185 to 256; numbered along this chain, Q15319 (parent)
chain: RELEAFAERFKQRRIKLGVTQADVGAALANLKIPGVGSLSQSTICRFESLTLSHNNMIALKPVLQAWLEEAE

Variants of: B1
Experiment: abundance fitness (aPCA) (normalised: wild type 0, dead -1); higher = more abundant; growth selection in yeast, the domain comes from the species named
Conditions: Homo sapiens

Abundance fitness, by site and new letter:
K16: W -0.224 | M 0.008 | F -0.284 | D -0.132 | Y -0.195 | S 0.011 | A 0.055 | C 0.017 | G -0.129 | T -0.063 | I -0.192 | V -0.099 | E 0.077 | R -0.01 | H -0.077 | P -0.968
G25: V 0.05 | W -0.317 | S -0.13 | M -0.27 | A 0.117 | F -0.13 | C 0.143 | H -0.269 | Q -0.531 | R -0.203 | N -0.963 | D -0.392 | L -0.159 | K -0.311 | E -0.054
D23: Y -0.411 | M -0.135 | F -0.208 | H -0.017 | N -0.112 | T -0.307 | G -0.246 | K -0.121
E8: Y -0.236 | M -0.003 | I 0 | N -0.434 | F -0.005 | C -0.212 | A 0.022 | W -0.2 | G -0.098 | T 0.053 | Q 0.073 | P -0.698 | D -0.05 | S -0.033
G18: W -1.05 | D -0.463 | E -0.514 | L -0.703 | Q -0.193 | F -0.784 | C -0.572 | T -0.884 | S -0.435 | Y -0.928 | K -0.296 | A -0.43 | R -0.249 | N -0.205 | V -0.997
A7: Q -0.689 | K -0.398 | T -0.235 | Y -0.725 | L -0.581 | R -0.695 | W -0.817 | V 0.039 | P -0.579 | C -0.124 | I -0.083 | F -0.649 | G -0.646 | D -0.953 | E -0.893 | M -0.784 | N -0.927 | H -0.707
T20: I -0.623 | N -0.318 | A -0.229 | H -0.221 | G -0.25 | Q -0.27 | P -0.273 | E -0.18 | K -0.183 | D -0.562 | S -0.095 | R -0.258
A26: I -0.133 | H -0.052 | C -0.08 | L -0.027 | D -0.01 | N -0.041 | M -0.095 | K 0.04 | E -0.051 | F -0.113 | G -0.15
F6: S -0.338 | K -1.03 | M -0.327 | C -0.731 | Y -0.118 | D -0.293 | L -0.221 | V -0.701
A5: Q 0.08 | M 0.109 | E -0.155 | L 0.019 | C -0.552 | G -0.033 | S -0.002 | W -0.379 | T -0.002 | R -0.121 | V -0.051 | F -0.605
L17: H -0.871 | Y -0.448 | N -0.474 | R -0.543 | M -0.099 | Q -0.983 | V -0.682 | F -0.405 | K -0.466 | I -0.359
L3: V 0.074 | T -0.109 | N -0.605 | Y -0.192 | E -0.395 | S -0.359 | K -0.482 | Q -0.227 | I 0.065 | M -0.261
Q21: K -0.285 | N 0.112 | W -0.331 | G -0.429 | T -0.193 | P -0.238 | E 0.081 | H 0.294 | A -0.086 | M -0.502 | V -0.002 | R -0.31 | S -0.289 | I -0.035 | C -0.243 | L -0.192 | F -0.413 | D -0.262
Q12: T -0.113 | G -0.377 | P -1.02 | E 0.07 | A 0.006 | R -0.187 | N 0.189 | I -0.172 | L -0.066 | Y 0.121 | S -0.083 | M -0.034 | K -0.115 | D 0.012
E4: Y -0.125 | G -0.197 | L -0.214 | K -0.125 | N -0.11 | M 0.01 | R 0.041 | C -0.17 | W -0.222 | I 0.113 | F 0.03
R14: F -1.11 | G -0.951 | M -0.945 | E -0.95 | I -0.656 | L -0.805 | T -1.15 | A -1.1 | V -0.759 | C -0.887 | D -0.454 | Q -0.45 | N -1.02 | S -1.06
I15: V -0.098 | M 0.024 | Y -0.32 | S -0.183 | T 0.02 | C -0.223 | G -0.423 | E -0.067 | L -0.088 | P -0.915 | A -0.093 | K -0.052 | F -0.32 | D -0.229 | N -0.147 | H -0.37 | Q -0.321 | W -0.527
A22: Y -0.115 | H -0.107 | G -0.055 | K -0.263 | R -0.087 | C -0.264 | D -0.176 | Q -0.214 | M -0.179 | L -0.265 | I -0.5 | T -0.207 | F -0.163 | P -0.469 | S -0.064 | W -0.329 | V -0.298 | N -0.02
R13: D -0.234 | N -0.119 | I 0.05 | K -0.019 | W -0.297 | C -0.265 | S 0.08 | Y -0.133 | T 0.108 | H 0.151 | E -0.075 | L -0.139 | P -0.938 | M -0.094 | F -0.247 | Q -0.069 | A -0.01 | V -0.018
E2: L -0.421 | P -0.345 | D 0.075 | Y -0.686 | H -0.221 | K -0.121 | I -0.664 | N -0.207 | M -0.437
F10: W -0.287 | L -0.697 | G -1.03 | R -0.653 | I -0.813 | V -0.765 | M -0.881
R9: K 0.022 | S 0.007 | T 0.016 | G -0.198 | W -0.146 | M 0.111 | C -0.141 | A -0.045 | H -0.018 | I -0.192 | N -0.016 | E 0.033 | F -0.33 | Y -0.025 | P -0.642
K11: I -0.123 | Y -0.474 | F -0.478 | N -0.88 | M -0.125 | L -0.449 | V -0.186 | E -0.945 | P -0.751 | H -0.1 | S -0.208 | T -0.276 | Q -0.136
V24: K -0.937 | H -0.917 | D -0.675 | S -0.785 | E -1.04 | W -0.61 | L -0.137 | I -0.123 | Y -0.962 | T -0.565 | G -0.858 | C -0.223 | Q -0.825 | R -0.83 | A -0.142 | P -0.842 | M -0.301 | F -0.709
V19: N -0.154 | K 0.078 | P -0.835 | Y -0.01 | S -0.14 | T -0.192 | G -0.391 | L 0.011 | Q -0.151 | H 0.007 | M 0.12 | F 0.03
